# Results reported in patent US20140023641A1 (MERCK SERONO S A, published 2014).
# T1: macaca GM-CSF (rhesus, Macaca mulatta; cynomolgus, Macaca fascicularis, identical sequence) (Macaca mulatta / Macaca fascicularis, UniProt Q0MUT8 18-144 (Chlorocebus aethiops entry), limits assumed)
# T1 chain: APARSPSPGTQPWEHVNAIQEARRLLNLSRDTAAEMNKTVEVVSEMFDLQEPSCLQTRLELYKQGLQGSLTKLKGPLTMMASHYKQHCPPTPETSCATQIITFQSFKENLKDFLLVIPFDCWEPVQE
# Columns and labels:
# [1] = molecular target: T1, macaca GM-CSF (rhesus, Macaca mulatta; …); test: cell-based or functional assay
# [2] = molecular target: T2, human GM-CSF T117 isoform (human, UniProt P04141 18-144); test: cell-based or functional assay
# Target sequence in this assay (P04141 18-144 I117T limits assumed): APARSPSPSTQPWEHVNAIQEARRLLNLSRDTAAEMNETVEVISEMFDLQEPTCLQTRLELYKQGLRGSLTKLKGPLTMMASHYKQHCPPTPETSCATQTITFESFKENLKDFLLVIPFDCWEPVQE
# [3] = molecular target: T3, human GM-CSF I117 isoform (human, UniProt P04141 18-144); test: cell-based or functional assay
# Target sequence in this assay (P04141 18-144 limits assumed): as the sequence (P04141 18-144 I117T limits assumed) above, with T100I counted along it
# [4] = molecular target: T2, human GM-CSF T117 isoform; test: cell-based or functional assay; remark: listed apart in the source
# [5] = molecular target: T3, human GM-CSF I117 isoform; test: cell-based or functional assay; remark: listed apart in the source
# [6] = molecular target: T3, human GM-CSF I117 isoform; test: TF-1 proliferation assay and KinExA
# Experimental: To determine potency and affinity of the antibody, Kd measurements and a proliferation bioassay of TF-1 cells were performed. TF-1 is an erythroleukemic cell line from blood, which proliferates in response to e.g. GM-CSF. Kd determination was carried out with the Kinetic Exclusion Assay (KinExA®; Sapidyne Instruments, Inc., Boise, Id., USA).
# [7] = molecular target: T1, macaca GM-CSF (rhesus, Macaca mulatta; …); test: cell-based or functional assay
# [8] = molecular target: T2, human GM-CSF T117 isoform; test: cell-based or functional assay; remark: listed apart in the source
# [9] = molecular target: T3, human GM-CSF I117 isoform; test: cell-based or functional assay; remark: listed apart in the source
# [10] = molecular target: T1, macaca GM-CSF (rhesus, Macaca mulatta; …); test: KinExA, affinity in solution, average n = 2
# Experimental: (§1) The 4K21 and reference antibodies were incubated at concentration below the expected Kd with serial dilutions of human GM-CSF I117 or T117, or macaca GM-CSF up to equilibrium. The remaining free antibody was measured in a Kinetic exclusion assay with the KinExA® instrument. Kd was calculated by fitting the curve of the signal obtained versus the GM-CSF concentrations. The average of two experiments using different IgG concentrations was calculated.
# [11] = molecular target: T2, human GM-CSF T117 isoform; test: KinExA, affinity in solution, average n = 2
# Experimental: as §1
# [12] = molecular target: T3, human GM-CSF I117 isoform; test: KinExA, affinity in solution, average n = 2
# Experimental: as §1
# [13] = molecular target: T1, macaca GM-CSF (rhesus, Macaca mulatta; …); test: cell-based or functional assay
# [14] = molecular target: T2, human GM-CSF T117 isoform; test: cell-based or functional assay; remark: listed apart in the source
# [15] = molecular target: T1, macaca GM-CSF (rhesus, Macaca mulatta; …); test: KinExA, affinity in solution; largest Kd ratio across the three GM-CSF targets, by Table 3 macaca (11 pM) against hGM-CSF I117 (4 pM)
# Experimental: as §1
# human GM-CSF A117 mutant = molecular target: T4, human GM-CSF A117 mutant (human, UniProt P04141 18-144); test: competition ELISA: antibody binding to coated human GM-CSF, soluble human GM-CSF A117 as competitor (one condition, concentration not given)
# T4 construct: also called hGM-CSF A117
# Excerpt: Detection of humanized parental anti-GM-CSF 4K21 binding to coated wild-type GM-CSF is competed away by soluble […]. Binding of all optimized 4K21 antibodies to the GM-CSF coated wells is not affected anymore by the presence of A117 protein in solution.
# [16] = molecular target: T2, human GM-CSF T117 isoform; test: KinExA, affinity in solution; largest Kd ratio across the three GM-CSF targets, by Table 3 hGM-CSF T117 (174 pM) against hGM-CSF I117 (17 pM)
# Experimental: as §1
Binder,Fold improvement of humanized parental 4K21 on macaca (TF-1 proliferation IC50) [1],Fold macaca/human I117 (TF-1 proliferation IC50) [1],"IC50 (pM), inhibition of GM-CSF induced TF-1 proliferation (32 pM GM-CSF, average n = 3) [1]",Fold human T117/I117 (TF-1 proliferation IC50) [2],Fold improvement of humanized parental 4K21 on T117 (TF-1 proliferation IC50) [2],"IC50 (pM), inhibition of GM-CSF induced TF-1 proliferation (32 pM GM-CSF, average n = 3) [2]",Fold improvement of humanized parental 4K21 on I117 (TF-1 proliferation IC50) [3],"IC50 (pM), inhibition of GM-CSF induced TF-1 proliferation (32 pM GM-CSF, average n = 3) [3]","Emax (%), inhibition of CD11b upregulation on neutrophils [4]","IC50 (nM), inhibition of CD11b upregulation on neutrophils [4]","Emax (%), inhibition of CD11b upregulation on neutrophils [5]","IC50 (nM), inhibition of CD11b upregulation on neutrophils [5]",fold preference for GM-CSF I117 versus T117 [6],"IC50 (pM), inhibition of GM-CSF induced IL-8 secretion in U937 cells (65 pM GM-CSF, n = 2) [7]","IC50 (pM), inhibition of GM-CSF induced IL-8 secretion in U937 cells (65 pM GM-CSF, n = 2) [8]","IC50 (pM), inhibition of GM-CSF induced IL-8 secretion in U937 cells (65 pM GM-CSF, n = 2) [9]",Kd [10],Kd [11],Kd [12],binding result (human GM-CSF A117 mutant),further results
"humanized parental anti-GM-CSF 4K21 VH3-07.1AL+VK2-A3.2 hIgG1 K antibody (MSB0010439) (antibody, V domains shown, hIgG1 kappa; also called humanized parental 4K21 hVH hVL; humanized parental 4K21) VH: EVQLVESGGGLVQPGGSLRLSCAASGFAFSAYDMSWVRQAPGKRLELVAYISSGGSSFYYPDTVKGRFTISRDNAKNSLYLQMNSLRAEDTAVYYCTRHLGFDYWGQGTLVTVSS VL: DIVMTQSPLSLPVTPGEPASISCRSSQSLVNSNGNTYLHWYLQKPGQSPQLLIYKVSNRFSGVPDRFSGSGSGTDFTLKISRVEAEDVGVYYCSQSTHVPPTFGQGTKVEIK",1 fold,6.6 fold,793 pM,11.6 fold,1 fold,1400 pM,1 fold,121 pM,68%,31.6 nM,65%,3.06 nM,> 10 fold,1120 pM,930 pM,170 pM,0.063 nM,0.164 nM,0.021 nM,–,"fold less efficient neutralization than on human GM-CSF (TF-1 proliferation assay) [13]: < 10 fold; fold worse IC50 on T117 than on I117, CD11b upregulation in neutrophils [14]: 10 fold"
"4K21 hVH S55K-T62S hVL N28I-H34S-N53R-H93F (MSB0010628) (antibody, V domains shown, Tested as IgG ('optimized 4K21 IgGs'); the humanized parent is hIgG1 kappa; also called optimized 4K21 antibody; 4K21 (4K21 VH S55K-T62S VL N28I-H34S-N53R-H93F)) VH: EVQLVESGGGLVQPGGSLRLSCAASGFAFSAYDMSWVRQAPGKRLELVAYISSGGKSFYYPDSVKGRFTISRDNAKNSLYLQMNSLRAEDTAVYYCTRHLGFDYWGQGTLVTVSS VL: DIVMTQSPLSLPVTPGEPASISCRSSQSLVNSIGNTYLSWYLQKPGQSPQLLIYKVSRRFSGVPDRFSGSGSGTDFTLKISRVEAEDVGVYYCSQSTFVPPTFGQGTKVEIK",11 fold,3.9 fold,72 pM,1.2 fold,63 fold,22 pM,6.6 fold,18 pM,97%,1.98 nM,84%,1.65 nM,–,501 pM,181 pM,257 pM,0.011 nM,0.007 nM,0.004 nM,binds,fold affinity difference between the 2 hGM-CSF isoforms and the macaca ortholog [15]: < 3 fold
"4K21 hVH S55K-T62S hVL S27eY-N28I-H34S-N53R-H93F (MSB0010629) (antibody, V domains shown, Tested as IgG ('optimized 4K21 IgGs'); the humanized parent is hIgG1 kappa; also called optimized 4K21 antibody with S27eY; 4K21 (4K21 VH S55K-T62S VL S27eY-N28I-H34S-N53R-H93F)) VH: EVQLVESGGGLVQPGGSLRLSCAASGFAFSAYDMSWVRQAPGKRLELVAYISSGGKSFYYPDSVKGRFTISRDNAKNSLYLQMNSLRAEDTAVYYCTRHLGFDYWGQGTLVTVSS VL: DIVMTQSPLSLPVTPGEPASISCRSSQSLVNYIGNTYLSWYLQKPGQSPQLLIYKVSRRFSGVPDRFSGSGSGTDFTLKISRVEAEDVGVYYCSQSTFVPPTFGQGTKVEIK",19 fold,1.5 fold,42 pM,1.6 fold,32 fold,44 pM,4.4 fold,28 pM,–,–,–,–,–,286 pM,354 pM,311 pM,–,–,–,binds,–
"anti-GM-CSF 4K21 hIgG1 K antibody (MSB0010259), recombinant chimeric 4K21 (antibody, V domains shown, Murine variable domains fused to human constant IgG1 heavy chain and kappa light chain domains; also called parental chimeric 4K21) VH: EVQLVESGGGLVKSGGSLKLSCAASGFAFSAYDMSWVRQTPEKRLELVAYISSGGSSFYYPDTVKGRFTISRDNAKNTLYLQMSSLKSEDTAMYYCTRHLGFDYWGQGTTLTVSS VL: DVVMTQTPLSLPVSLGDQASISCRSSQSLVNSNGNTYLHWFLQKPGQSPKLLIYKVSNRFSGVPDRFSGSGSGTDFTLKISRVEAEDLGVYFCSQSTHVPPTFGGGTKLEIK",0.7 fold,9.3 fold,1220 pM,10.8 fold,1 fold,1410 pM,0.9 fold,130 pM,–,–,–,–,> 10 fold,–,–,–,0.104 nM,0.174 nM,0.017 nM,–,fold affinity difference between the 2 hGM-CSF isoforms and the macaca ortholog [16]: ≤ 10 fold
"murine hybridoma-derived 4K21 antibody (antibody, V domains shown, also called murine 4K21; murine monoclonal antibody 4K21) VH: EVQLVESGGGLVKSGGSLKLSCAASGFAFSAYDMSWVRQTPEKRLELVAYISSGGSSFYYPDTVKGRFTISRDNAKNTLYLQMSSLKSEDTAMYYCTRHLGFDYWGQGTTLTVSS VL: DVVMTQTPLSLPVSLGDQASISCRSSQSLVNSNGNTYLHWFLQKPGQSPKLLIYKVSNRFSGVPDRFSGSGSGTDFTLKISRVEAEDLGVYFCSQSTHVPPTFGGGTKLEIK",–,–,–,–,–,–,–,–,–,–,–,–,> 10 fold,–,–,–,–,–,–,–,–
